# According to the supplement of paper PMC10567573:
# B1: RAB22A (parent)
# chain: FVEDSFDPNINPTIGASFMTKTVQ
# B2: TBC1D10A (parent)
# chain: WCLVQICEKYLPGYYSEKLEAIQL
# B3: SMTNL2 (parent)
# chain: AFTMAENLANCERLIEVEDMMVMG
# Variants of: B1
# Assay: protein stability index of a GFP-peptide fusion (GPS, HEK-293T) (PSI 1-6); higher = more stable
# Settings: c terminus: a fixed tail appended
# 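Further: lentivirally expressed fusions sorted by FACS into six bins by GFP to DsRed ratio, PSI derived from sequencing read proportions per bin multiplied by bin number.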
row,Variant,protein stability index
1,M19N,2.99
2,M19P,2.62
3,M19Q,2.38
4,M19R,2.46
5,M19S,2.64
6,M19T,2.81
7,M19V,2.29
8,M19W,3.23
9,M19Y,2.08
10,T20A,2.14
11,T20C,2.38
12,T20D,2.52
13,T20E,2.39
14,T20F,1.85
15,T20G,2.58
16,T20H,2.34
17,T20I,1.87
18,T20K,2.23
19,T20L,1.66
20,T20M,2.22
21,T20N,2.31
22,T20P,2.29
23,T20Q,2.24
24,T20R,2.12
25,T20S,2.06
26,T20V,2.23

row,Variant,protein stability index
1,T20W,2.35
2,T20Y,1.86
3,K21A,2.03
4,K21C,1.56
5,K21D,2.87
6,K21E,2.67
7,K21F,2.38
8,K21G,2.29
9,K21H,2.08
10,K21I,2.18
11,K21L,2.24
12,K21M,1.94
13,K21N,2.51
14,K21P,2.74
15,K21Q,2.87
16,K21R,2.19
17,K21S,2.11
18,K21T,2.41
19,K21V,1.89
20,K21W,2.44
21,K21Y,1.93
22,T22A,2.43
23,T22C,2.35
24,T22D,2.85
25,T22E,2.91
26,T22F,2.02

row,Variant,protein stability index
1,T22G,2.25
2,T22H,2.09
3,T22I,1.6
4,T22K,2.77
5,T22L,1.78
6,T22M,2.11
7,T22N,2.25
8,T22P,2.75
9,T22Q,2.45
10,T22R,2.34
11,T22S,2.26
12,T22V,2.2
13,T22W,1.23
14,T22Y,1.73
15,V23A,2.43
16,V23C,2.37
17,V23D,2.76
18,V23E,3.24
19,V23F,1.79
20,V23G,2.56
21,V23H,2.5
22,V23I,2.37
23,V23K,2.26
24,V23L,2.93
25,V23M,1.98
26,V23N,2.44

row,Variant,protein stability index
1,V23P,2.94
2,V23Q,2.39
3,V23R,1.89
4,V23S,2.66
5,V23T,2.78
6,V23W,2.5
7,V23Y,2.52
8,Q24A,2.11
9,Q24C,1.89
10,Q24D,2.56
11,Q24E,2.91
12,Q24F,1.49
13,Q24G,2.22
14,Q24H,2.1
15,Q24I,1.55
16,Q24K,2.15
17,Q24L,2.19
18,Q24M,1.71
19,Q24N,2.28
20,Q24P,2.45
21,Q24R,2.38
22,Q24S,2.82
23,Q24T,2.01
24,Q24V,2.24
25,Q24Y,2.98

# Variants of: B2
# Assay: as above
# Settings: c terminus: a fixed tail appended
row,Variant,protein stability index
1,W1A,3.88
2,W1F,2.61
3,W1H,2.83
4,W1P,1.93
5,W1Q,1.07
6,W1R,2.22
7,W1T,3.45
8,W1V,2.6
9,C2E,1.01
10,C2F,1.81
11,C2G,2.79
12,C2N,3.07
13,C2P,1.86
14,C2R,3.28
15,C2S,1.67
16,L3C,3.05
17,L3D,1.29
18,L3G,3.3
19,L3H,1.87
20,L3M,2.45
21,L3N,1.88
22,L3P,1.5
23,L3S,1.88
24,L3T,4.55
25,L3W,1.02

row,Variant,protein stability index
1,V4E,2.09
2,V4G,2.45
3,V4H,1.59
4,V4I,2.23
5,V4L,2.19
6,V4M,3.23
7,V4N,1.57
8,V4P,1.73
9,V4Q,1.48
10,V4T,2.83
11,Q5F,2.92
12,Q5G,3.13
13,Q5K,1.71
14,Q5L,3.52
15,Q5M,2.16
16,Q5P,2.69
17,Q5S,2.72
18,Q5V,4.85
19,I6C,3.08
20,I6G,1.73
21,I6K,2.41
22,I6P,2.45
23,C7D,2.31
24,C7K,2.9
25,C7L,3.68

row,Variant,protein stability index
1,C7M,2.57
2,C7N,3.08
3,C7R,3.73
4,C7T,3.5
5,C7Y,3.39
6,E8A,2.95
7,E8C,2.85
8,E8K,4.48
9,E8L,4.41
10,E8M,2.81
11,E8Q,4.87
12,E8T,2.34
13,E8Y,3.51
14,K9A,1.11
15,K9C,4.4
16,K9F,3.33
17,K9H,2.65
18,K9I,3.29
19,K9P,2.17
20,K9T,3.21
21,Y10G,4.89
22,Y10I,1.18
23,Y10K,2.62
24,Y10M,3.09
25,Y10P,2.35

row,Variant,protein stability index
1,Y10Q,2.39
2,Y10V,1.61
3,Y10W,4.21
4,L11C,2.72
5,L11D,2.91
6,L11E,2.65
7,L11I,3.03
8,L11P,3.62
9,L11S,2.68
10,P12I,2.32
11,P12K,2.12
12,P12M,1.77
13,P12N,4.27
14,P12S,3.84
15,P12T,1.62
16,P12W,2.32
17,P12Y,2.66
18,G13A,3.16
19,G13C,1.5
20,G13E,3.01
21,G13I,1.54
22,G13K,2.91
23,G13M,3.53
24,G13S,2.02
25,G13W,2.7

row,Variant,protein stability index
1,G13Y,5.24
2,Y14D,3.02
3,Y14E,1.59
4,Y14K,3.06
5,Y14N,3.59
6,Y14P,2.61
7,Y14V,3.94
8,Y15C,2.35
9,Y15F,1.24
10,Y15W,2.85
11,S16D,2.24
12,S16E,4.03
13,S16H,1.6
14,S16P,2.1
15,S16W,3.94
16,S16Y,2.7
17,E17C,2.56
18,E17H,1.77
19,E17I,2.74
20,E17K,1.66
21,E17L,3.48
22,E17M,3.65
23,E17P,2.03
24,E17Q,1.94
25,E17V,3.99

row,Variant,protein stability index
1,K18C,3.08
2,K18D,1.92
3,K18H,3.99
4,K18I,2.1
5,K18L,1.83
6,K18M,2.98
7,K18Q,1.91
8,K18R,2.22
9,K18T,2
10,K18V,3.17
11,K18W,3.09
12,L19C,4.85
13,L19E,4.16
14,L19N,3.63
15,L19P,1.99
16,L19Q,3.88
17,L19V,2.92
18,E20A,2.21
19,E20D,1.79
20,E20H,3.07
21,E20I,2.3
22,E20K,3.35
23,E20Q,2.79
24,E20R,1.8
25,E20S,2.64

row,Variant,protein stability index
1,E20T,1.47
2,E20W,1.74
3,A21C,4.65
4,A21E,3.38
5,A21G,2.02
6,A21H,3.56
7,A21L,4.51
8,A21M,3.73
9,A21P,3.77
10,A21Q,2.37
11,A21R,2.99
12,A21T,2.15
13,I22D,3.23
14,I22E,3.23
15,I22G,2.35
16,I22K,2.86
17,I22L,4.01
18,I22M,2.21
19,I22N,1.3
20,I22Q,2.4
21,I22S,1.72
22,I22T,2.67
23,I22V,3.09
24,Q23A,4.11
25,Q23E,2.44

row,Variant,protein stability index
1,Q23F,3.75
2,Q23H,2.13
3,Q23I,3.3
4,Q23K,2.75
5,Q23M,2.93
6,Q23N,3.14
7,Q23P,1.64
8,Q23R,2.52
9,Q23S,3.29
10,Q23T,5.09
11,Q23V,2.11
12,Q23W,2.58
13,L24A,3
14,L24D,2.69
15,L24F,3.24
16,L24H,1.14
17,L24K,3.14
18,L24T,2.55
19,L24V,2.38
20,L24W,2.98

# Variants of: B3
# Assay: as above
# Settings: c terminus: a fixed tail appended
row,Variant,protein stability index
1,A1C,1.74
2,A1D,2.47
3,A1E,2.1
4,A1F,1.86
5,A1G,1.74
6,A1H,2.62
7,A1I,1.76
8,A1K,2.58
9,A1L,1.75
10,A1M,1.61
11,A1N,2.44
12,A1P,3.16
13,A1Q,3.22
14,A1R,2.84
15,A1S,2.46
16,A1T,1.81
17,A1V,2.06
18,A1W,1.86

row,Variant,protein stability index
1,A1Y,2.2
2,F2A,3.7
3,F2C,3.14
4,F2D,4.48
5,F2E,4.17
6,F2G,4
7,F2H,3.48
8,F2I,2.27
9,F2K,3.5
10,F2L,2.27
11,F2M,2.08
12,F2N,3.95
13,F2P,4.28
14,F2Q,3.22
15,F2R,2.4
16,F2S,3.49
17,F2T,3.88
18,F2V,3.18
